T1: BCMA on MM.1S cells (human multiple myeloma cells that endogenously express BCMA) (human, UniProt Q02223 1-184)
T1 sequence (looked up): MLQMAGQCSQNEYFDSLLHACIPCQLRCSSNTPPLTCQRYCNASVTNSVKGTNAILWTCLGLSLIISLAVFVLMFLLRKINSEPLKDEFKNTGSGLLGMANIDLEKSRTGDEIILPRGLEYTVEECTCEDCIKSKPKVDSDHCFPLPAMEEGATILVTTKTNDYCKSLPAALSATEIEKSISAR


Biological target: T1, BCMA on MM.1S cells (human multiple …)
Assay: cell-based or functional assay

Row | Binder | killing of target cell (luciferase activity in target cell, effector/target 1:4, 48 hours) [%]
1 | BY-01G CAR (on BCMA CAR-T cell BY-01G) (other) EIVMTQSPSTLSASVGDRVIITCQASENIYRNLAWYQQKPGKAPKLLIYAASLLASGVPSRFSGSGSGAEFTLTISSLQPDDFATYYCQNAFYSSSADNPFGQGTKLTVLGGGGSGGGGSGGGGSEVQLVESGGGLVQPGGSLRLSCTASGFSLSSYAMSWVRQAPGKGLEWIGMISSSGSTHYASWAKGRFTISRDTSKNTVYLQMNSLRAEDTAVYYCARDFYVYSSGTYLEYGMDLWGQGTLVTVSSTTTPAPRPPTPAPTIASQPLSLRPEACRPAAGGAVHTRGLDFACDIYIWAPLAGTCGVLLLSLVITLYCKRGRKKLLYIFKQPFMRPVQTTQEEDGCSCRFPEEEEGGCELRVKFSRSADAPAYQQGQNQLYNELNLGRREEYDVLDKRRGRDPEMGGKPRRKNPQEGLYNELQKDKMAEAYSEIGMKGERRRGKGHDGLYQGLSTATKDTYDALHMQALPPR | 100
2 | BY-04G CAR (on BCMA CAR-T cell BY-04G) (other) EIVMTQSPSTLSASVGDRVIINCQASQSVFSNNYLAWYQQKPGKAPKLLIYRASNLASGVPSRFSGSGSGAEFTLTISSLQPDDFATYYCQPTYLSGDWYVAFGQGTKLTVLGGGGSGGGGSGGGGSEVQLVESGGGLVQPGGSLRLSCTASGFSLNYYGMGWVRQAPGKGLEWIGIIAGDRDTYYATWAKGRFTISRDNSKNTVYLQMNSLRAEDTAVYFCARGSYSSTWDGAFDLWGPGTLVTVSSTTTPAPRPPTPAPTIASQPLSLRPEACRPAAGGAVHTRGLDFACDIYIWAPLAGTCGVLLLSLVITLYCKRGRKKLLYIFKQPFMRPVQTTQEEDGCSCRFPEEEEGGCELRVKFSRSADAPAYQQGQNQLYNELNLGRREEYDVLDKRRGRDPEMGGKPRRKNPQEGLYNELQKDKMAEAYSEIGMKGERRRGKGHDGLYQGLSTATKDTYDALHMQALPPR | 100

From patent EP4435012A1 (Juventus Cell Therapy Ltd., dated 2024)
